In FireProtDB (doi:10.1111/j.1432-1033.1994.tb18977.x):

Conditions: Saccharomyces cerevisiae (strain ATCC 204508 / S288c), pH 7, 30 °C, Urea, Fluorescence, Potassium phosphate 50 mM

Sequence of Cytochrome c isoform 1 D96C|C108T, P00044 D96C C108T (P00044 whole entry D96C/C108T, canonical isoform): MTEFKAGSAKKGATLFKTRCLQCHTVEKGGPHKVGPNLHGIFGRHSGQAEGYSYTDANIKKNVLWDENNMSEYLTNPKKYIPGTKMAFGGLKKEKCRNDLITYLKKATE
Sequence of Cytochrome c isoform 1 wild type, P00044 (P00044 whole entry, canonical isoform): as the sequence (P00044 whole entry D96C/C108T, canonical isoform) above, with C96D, T108C counted along it
Sequence of Cytochrome c isoform 1 R19C|C108T, P00044 R19C C108T (P00044 whole entry R19C/C108T, canonical isoform): as the sequence (P00044 whole entry D96C/C108T, canonical isoform) above, with R19C, C96D counted along it
Sequence of Cytochrome c isoform 1 C108T, P00044 (P00044 whole entry C108T, canonical isoform): as the sequence (P00044 whole entry D96C/C108T, canonical isoform) above, with C96D counted along it

Substance	denaturant m value	denaturant midpoint (higher = more stable)	unfolding free energy	ddG of mutation (higher = less stable) (structure 1YCC)	denaturant m value (structure 1YCC)	denaturant midpoint (higher = more stable) (structure 1YCC)	unfolding free energy (structure 1YCC)
Cytochrome c isoform 1 wild type, P00044	0.91 kcal/mol/M	2.6 M	10 kJ/mol				
Cytochrome c isoform 1 D96C|C108T, P00044 D96C C108T				-3.81 kJ/mol	1.2 kcal/mol/M	2.8 M	13.8 kJ/mol
Cytochrome c isoform 1 C108T, P00044				-17.1 kJ/mol	1.79 kcal/mol/M	3.6 M	27.1 kJ/mol
Cytochrome c isoform 1 R19C|C108T, P00044 R19C C108T				-17.6 kJ/mol	1.79 kcal/mol/M	3.7 M	27.6 kJ/mol
